Numbered stars: 1 amine (or outer) side, 2 acyl side, 3 side chain; on linkers, the order of the positions; unused ones are H or OH. Square brackets hold non-standard residues; d marks the D form. Side chains are listed from the residue outwards. Ends that are not written are not given here. γGlu = O=C(O)[C@H](CCC(=O)[*:2])N[*:1]; x53 = not defined here; Aib = CC(C)(N)C(=O)O

Sequence of human glucagon receptor (P47871 26-477): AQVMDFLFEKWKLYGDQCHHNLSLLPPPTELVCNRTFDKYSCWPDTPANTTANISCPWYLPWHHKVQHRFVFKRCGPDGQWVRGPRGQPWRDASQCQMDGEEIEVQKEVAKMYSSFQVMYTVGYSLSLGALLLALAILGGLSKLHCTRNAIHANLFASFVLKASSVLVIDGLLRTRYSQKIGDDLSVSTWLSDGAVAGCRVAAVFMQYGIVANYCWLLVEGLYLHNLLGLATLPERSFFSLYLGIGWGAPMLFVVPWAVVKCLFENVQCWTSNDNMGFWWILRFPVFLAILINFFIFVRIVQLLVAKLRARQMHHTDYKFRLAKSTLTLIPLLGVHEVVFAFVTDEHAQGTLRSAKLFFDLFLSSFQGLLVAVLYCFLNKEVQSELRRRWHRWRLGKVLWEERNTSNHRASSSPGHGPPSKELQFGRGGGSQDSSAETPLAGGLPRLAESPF

In the first test the target is human GLP-1 receptor (human, UniProt P43220 24-463). Briefly: cell-based or functional assay.
HXQGTFTSDLSKQKESRRAQDFIEWLKNGGPSSGAPPPSK (dSer at 2; K(γE-x53) at 14; C-terminal NH2) [SEQ ID NO: 111]: the “EC50 hGLP-1R (cAMP)” value is 8.1 pM.

For HXQGTFTSDLSKQKESRRAQDFIEWLKNGGPSSGAPPPSK (dSer at 2; K(x53) at 14; C-terminal NH2) [SEQ ID NO: 112], the “EC50 hGLP-1R (cAMP)” value was 33.6 pM.

As to HXQGTFTSDLSKQKESXAAXLFIEWLKAGGPSSGAPPPS (dSer at 2; K(γE-x53) at 14; Aib at 17; Aib at 20; C-terminal NH2) [SEQ ID NO: 12], the “EC50 hGLP-1R (cAMP)” value stood at 4.6 pM.

With HXQGTFTSDLSKQKESXAAQLFIEWLKAGGPSSGAPPPS (dSer at 2; K(GABA-x70) at 14; Aib at 17; C-terminal NH2) [SEQ ID NO: 131], the “EC50 hGLP-1R (cAMP)” value is 9.1 pM.

Regarding H[Aib]QGTFTSDLSKQK([γGlu-x53])ESRRAQDFIEWLKNGGPSSGAPPPS-NH2 (reading uncertain) [SEQ ID NO: 117], the “EC50 hGLP-1R (cAMP)” value stood at 3.8 pM.

In the case of HXQGTFTSDLSKQKDSRRAQDFIEWLKNGGPSSGAPPPS (dSer at 2; K(γE-x72) at 14; C-terminal NH2) [SEQ ID NO: 91], the “EC50 hGLP-1R (cAMP)” value was determined as 15.1 pM.

With HXQGTFTSDLSKQKDSRRAQDFIEWLKSGGPSSGAPPPS (dSer at 2; K(γE-x53) at 14; C-terminal NH2) [SEQ ID NO: 128], the “EC50 hGLP-1R (cAMP)” value was determined as 6.2 pM.

As for HXQGTFTSDLSKQKESRRAQDFIEWLKNGGPSSGAPPPK (dSer at 2; K(γE-x53) at 14; C-terminal NH2) [SEQ ID NO: 113], the “EC50 hGLP-1R (cAMP)” value is 11.4 pM.

For HXQGTFTSDLSKQKESXAAQDFIEWLKAGGPSSGAPPPS (dSer at 2; K(γE-x53) at 14; Aib at 17; C-terminal NH2) [SEQ ID NO: 14], the “EC50 hGLP-1R (cAMP)” value stood at 4.6 pM.

HXQGTFTSDLSKQKDSRRAQDFIEWLKNGGPSSGAPPPS (dSer at 2; K(γE-x53) at 14; C-terminal NH[(CH2-CH2-O)24-CH2-CH2-COOH]) [SEQ ID NO: 105]: the “EC50 hGLP-1R (cAMP)” value turned out to be 7.9 pM.

Turning to HXQGTFTSDLSKQKESRRAQDFIEWLKRXGPSSGAPPPS (dSer at 2; K(γE-x53) at 14; dAla at 29; C-terminal NH2) [SEQ ID NO: 126], the “EC50 hGLP-1R (cAMP)” value was 6.6 pM.

As for HXQGTFTSDLSKQKDSKAAQDFIEWLKAGGPSSGAPPPS (dSer at 2; K(γE-X95) at 14; C-terminal NH2) [SEQ ID NO: 142], the “EC50 hGLP-1R (cAMP)” value came out at 4.1 pM.

Regarding HXQGTFTSDLSKQKDSRRAQDFIEWLKNAGPSSGAPPPS (dSer at 2; K(γE-x53) at 14; C-terminal NH2) [SEQ ID NO: 93], the “EC50 hGLP-1R (cAMP)” value came out at 10.7 pM.

Consider HXQGTFTSDLSKQKESRRAXDFIEWLKNGGPSSGAPPPS (dSer at 2; K(x53) at 14; Aib at 20; C-terminal NH2) [SEQ ID NO: 119], for which the “EC50 hGLP-1R (cAMP)” value amounted to 30.8 pM.

Regarding HXQGTFTSDLSKQKDSKAAQDFIEWLKAGGPSSGAPPPS (dSer at 2; K(γE-γE-x53) at 14; C-terminal NH2) [SEQ ID NO: 140], the “EC50 hGLP-1R (cAMP)” value was 1.3 pM.

As for HXQGTFTSDLSKQKESRRAQDFIEWLKNGGPSSGAPPPS (dSer at 2; K(γE-x53) at 14; C-terminal NH2) [SEQ ID NO: 116], the “EC50 hGLP-1R (cAMP)” value turned out to be 6 pM.

For the molecule HXQGTFTSDLSKQKDSRRAQDFIEWLKNGGPSSGAPPPS (dSer at 2; K(γE-x53) at 14; C-terminal N(diethyl)) [SEQ ID NO: 101], the “EC50 hGLP-1R (cAMP)” value was found to be 9.8 pM.

With HXQGTFTSDLSKQKDSQAAQDFIEWLKRAGPSSGAPPPS (dSer at 2; K(γE-x53) at 14; C-terminal NH2) [SEQ ID NO: 124], the “EC50 hGLP-1R (cAMP)” value is 3 pM.

For HXQGTFTSDLSKQKDSRRAQDFIEWLKNGGPSSGAPPPS (dSer at 2; K(γE-x53) at 14; C-terminal N(morpholin)) [SEQ ID NO: 102], the “EC50 hGLP-1R (cAMP)” value stood at 7.2 pM.

Turning to HXQGTFTSDLSKQKESRAAXLFIEWLKNGGPSSGAPPPS (dSer at 2; K(x53) at 14; Aib at 20; C-terminal NH2) [SEQ ID NO: 122], the “EC50 hGLP-1R (cAMP)” value was 24.9 pM.

As to HXQGTFTSDLSKQKESRRAQDFIEWLKNGGPSSGAPPPK (dSer at 2; K(x53) at 14; C-terminal NH2) [SEQ ID NO: 114], the “EC50 hGLP-1R (cAMP)” value is 62.3 pM.

Turning to HXQGTFTSDLSKQKESRAAXLFIEWLKNGGPSSGAPPPS (dSer at 2; K(γE-x53) at 14; Aib at 20; C-terminal NH2) [SEQ ID NO: 121], the “EC50 hGLP-1R (cAMP)” value is 6.1 pM.

Another test has as its target human glucagon receptor (human, UniProt P47871 26-477). Kind of test: cell-based or functional assay.
Consider HXQGTFTSDLSKQKESRRAQDFIEWLKNGGPSSGAPPPSK (dSer at 2; K(γE-x53) at 14; C-terminal NH2) [SEQ ID NO: 111], for which the “EC50 hGlucagon-R (cAMP)” value came to 2.5 pM.

Regarding HXQGTFTSDLSKQKESRRAQDFIEWLKNGGPSSGAPPPSK (dSer at 2; K(x53) at 14; C-terminal NH2) [SEQ ID NO: 112], the “EC50 hGlucagon-R (cAMP)” value stood at 21.1 pM.

Consider HXQGTFTSDLSKQKESXAAXLFIEWLKAGGPSSGAPPPS (dSer at 2; K(γE-x53) at 14; Aib at 17; Aib at 20; C-terminal NH2) [SEQ ID NO: 12], for which the “EC50 hGlucagon-R (cAMP)” value was determined as 263 pM.

On to HXQGTFTSDLSKQKESXAAQLFIEWLKAGGPSSGAPPPS (dSer at 2; K(GABA-x70) at 14; Aib at 17; C-terminal NH2) [SEQ ID NO: 131], for which the “EC50 hGlucagon-R (cAMP)” value worked out at 24.9 pM.

Turning to H[Aib]QGTFTSDLSKQK([γGlu-x53])ESRRAQDFIEWLKNGGPSSGAPPPS-NH2 (reading uncertain) [SEQ ID NO: 117], the “EC50 hGlucagon-R (cAMP)” value is 16.5 pM.

Consider HXQGTFTSDLSKQKDSRRAQDFIEWLKNGGPSSGAPPPS (dSer at 2; K(γE-x72) at 14; C-terminal NH2) [SEQ ID NO: 91], for which the “EC50 hGlucagon-R (cAMP)” value was determined as 8.9 pM.

On to HXQGTFTSDLSKQKDSRRAQDFIEWLKSGGPSSGAPPPS (dSer at 2; K(γE-x53) at 14; C-terminal NH2) [SEQ ID NO: 128], for which the “EC50 hGlucagon-R (cAMP)” value stood at 1.6 pM.

On to HXQGTFTSDLSKQKESRRAQDFIEWLKNGGPSSGAPPPK (dSer at 2; K(γE-x53) at 14; C-terminal NH2) [SEQ ID NO: 113], for which the “EC50 hGlucagon-R (cAMP)” value turned out to be 5.4 pM.

With HXQGTFTSDLSKQKESXAAQDFIEWLKAGGPSSGAPPPS (dSer at 2; K(γE-x53) at 14; Aib at 17; C-terminal NH2) [SEQ ID NO: 14], the “EC50 hGlucagon-R (cAMP)” value came to 94.7 pM.

Regarding HXQGTFTSDLSKQKDSRRAQDFIEWLKNGGPSSGAPPPS (dSer at 2; K(γE-x53) at 14; C-terminal NH[(CH2-CH2-O)24-CH2-CH2-COOH]) [SEQ ID NO: 105], the “EC50 hGlucagon-R (cAMP)” value was 1 pM.

Turning to HXQGTFTSDLSKQKESRRAQDFIEWLKRXGPSSGAPPPS (dSer at 2; K(γE-x53) at 14; dAla at 29; C-terminal NH2) [SEQ ID NO: 126], the “EC50 hGlucagon-R (cAMP)” value came out at 6.8 pM.

Turning to HXQGTFTSDLSKQKDSKAAQDFIEWLKAGGPSSGAPPPS (dSer at 2; K(γE-X95) at 14; C-terminal NH2) [SEQ ID NO: 142], the “EC50 hGlucagon-R (cAMP)” value came out at 2.1 pM.

In the case of HXQGTFTSDLSKQKDSRRAQDFIEWLKNAGPSSGAPPPS (dSer at 2; K(γE-x53) at 14; C-terminal NH2) [SEQ ID NO: 93], the “EC50 hGlucagon-R (cAMP)” value was found to be 2.6 pM.

As to HXQGTFTSDLSKQKESRRAXDFIEWLKNGGPSSGAPPPS (dSer at 2; K(x53) at 14; Aib at 20; C-terminal NH2) [SEQ ID NO: 119], the “EC50 hGlucagon-R (cAMP)” value stood at 41.2 pM.

Consider HXQGTFTSDLSKQKDSKAAQDFIEWLKAGGPSSGAPPPS (dSer at 2; K(γE-γE-x53) at 14; C-terminal NH2) [SEQ ID NO: 140], for which the “EC50 hGlucagon-R (cAMP)” value was determined as 1.5 pM.

Consider HXQGTFTSDLSKQKESRRAQDFIEWLKNGGPSSGAPPPS (dSer at 2; K(γE-x53) at 14; C-terminal NH2) [SEQ ID NO: 116], for which the “EC50 hGlucagon-R (cAMP)” value amounted to 3.6 pM.

As for HXQGTFTSDLSKQKDSRRAQDFIEWLKNGGPSSGAPPPS (dSer at 2; K(γE-x53) at 14; C-terminal N(diethyl)) [SEQ ID NO: 101], the “EC50 hGlucagon-R (cAMP)” value was 1.7 pM.

As for HXQGTFTSDLSKQKDSQAAQDFIEWLKRAGPSSGAPPPS (dSer at 2; K(γE-x53) at 14; C-terminal NH2) [SEQ ID NO: 124], the “EC50 hGlucagon-R (cAMP)” value came out at 8.4 pM.

With HXQGTFTSDLSKQKDSRRAQDFIEWLKNGGPSSGAPPPS (dSer at 2; K(γE-x53) at 14; C-terminal N(morpholin)) [SEQ ID NO: 102], the “EC50 hGlucagon-R (cAMP)” value came to 1.1 pM.

As to HXQGTFTSDLSKQKESRAAXLFIEWLKNGGPSSGAPPPS (dSer at 2; K(x53) at 14; Aib at 20; C-terminal NH2) [SEQ ID NO: 122], the “EC50 hGlucagon-R (cAMP)” value came out at 156 pM.

As to HXQGTFTSDLSKQKESRRAQDFIEWLKNGGPSSGAPPPK (dSer at 2; K(x53) at 14; C-terminal NH2) [SEQ ID NO: 114], the “EC50 hGlucagon-R (cAMP)” value is 31.1 pM.

On to HXQGTFTSDLSKQKESRAAXLFIEWLKNGGPSSGAPPPS (dSer at 2; K(γE-x53) at 14; Aib at 20; C-terminal NH2) [SEQ ID NO: 121], for which the “EC50 hGlucagon-R (cAMP)” value was 23.7 pM.

Source of the values: patent US20180185450A1 (Sanofi, published 2018).
